Test results reported in US20190359698A1 (YAMAGUCHI UNIVERSITY, published 2019).

What was measured:
[1] = molecular target: T1, GPC3 N-terminal fragment (polypeptide consisting of the amino acid sequence represented by SEQ ID NO: 155) (human); assay: FCM of IgG on GPC3 N-terminal fragment-expressing cell line
T1 construct: domain: transmembrane domain; also called GPC3 N-terminal fragment-expressing cell line; N-terminal polypeptide of GPC3; not shown: HA tag added to the N terminus by the pDisplay vector; myc tag added to the C terminus of the PDGFR by the pDisplay vector

[2] = molecular target: T2, GPC3 C-terminal fragment (polypeptide consisting of the amino acid sequence represented by SEQ ID NO: 156) (human); assay: FCM of IgG on GPC3 C-terminal fragment-expressing cell line
T2 construct: domain: transmembrane domain; also called GPC3 C-terminal fragment-expressing cell line; C-terminal polypeptide of GPC3; not shown: HA tag added to the N terminus by the pDisplay vector; myc tag added to the C terminus of the PDGFR by the pDisplay vector
T2 sequence (P09619 other isoform, or with tags, fused parts or gaps): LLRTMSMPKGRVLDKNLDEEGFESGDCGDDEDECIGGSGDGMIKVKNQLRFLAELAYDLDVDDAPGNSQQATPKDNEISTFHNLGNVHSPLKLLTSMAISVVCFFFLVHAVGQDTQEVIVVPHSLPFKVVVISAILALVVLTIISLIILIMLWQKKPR

T1 sequence (P09619 other isoform, or with tags, fused parts or gaps): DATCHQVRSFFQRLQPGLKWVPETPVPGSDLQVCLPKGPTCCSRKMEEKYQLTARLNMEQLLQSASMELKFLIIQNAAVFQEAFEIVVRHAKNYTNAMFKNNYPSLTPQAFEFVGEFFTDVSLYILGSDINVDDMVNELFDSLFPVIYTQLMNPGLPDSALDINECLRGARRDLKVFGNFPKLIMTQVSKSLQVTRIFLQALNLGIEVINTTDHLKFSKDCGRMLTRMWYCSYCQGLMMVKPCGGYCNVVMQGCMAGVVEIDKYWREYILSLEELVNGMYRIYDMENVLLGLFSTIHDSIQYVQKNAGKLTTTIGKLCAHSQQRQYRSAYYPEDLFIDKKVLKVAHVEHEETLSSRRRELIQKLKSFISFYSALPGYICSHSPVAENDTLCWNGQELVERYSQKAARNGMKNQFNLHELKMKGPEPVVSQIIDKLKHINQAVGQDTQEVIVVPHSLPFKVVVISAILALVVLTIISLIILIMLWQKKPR

Row | Binder | binding result [1] | binding result [2]
1 | IgG clone TF1413-02e004 (antibody, V domains shown, also called TF1413-02e004 IgG antibody) VH: QVQLQQSGAELVKPGAPVKLSCKASGYTFTSYWMNWVKQRPGRGLEWIGRIDPSDSETHYNQKFKDEATLTVDKSSSTAYIQLSSLTSEDSAVYYCARGYYAMDYWGQGTSVTVSS VL: DIVLTQSPKFMSTSVGDRVSITCKASQDVSTAVAWYQQKPGQSPKLLIYSASYRYTGVPDRFTGSGSGTDFTFTISSVQAEDLAVYYCQQHYSTPTFGGGTKLEIKR | binds | no binding
2 | IgG clone TF1413-03e004 (antibody, V domains shown, also called TF1413-03e004 IgG antibody) VH: QVQLKQSGAELVKPGAPVKLSCKASGYTFTSYWMNWVKQRPGRGLEWIGRIDPSDSETHYNQKFKDKATLTVDKSSSTAYIQLSSLTSEDSAVYYCARGYYGSNYWGQGTTLTVSS VL: DIKMTQSPKFMSTSVGDRVSVTCKASQNVGTNVAWYQQKPGQSPKALIYSASYRYSGVPDRFTGSGSGTDFTLTISNVQSEDLAEYFCQQYNSYPLTFGAGTKLELKR | – | no binding
3 | IgG clone TF1413-02d028 (antibody, V domains shown, also called TF1413-02d028 IgG antibody; scFv clone [TF1413-02d028] antibody) VH: QVQLKESGPELEKPGASVKISCKASGYSFTGYNMNWVKQSNGKSLEWIGNIDPYYGGTSYNQKFKGKATLTVDKSSSTAYMQLKSLTSEDSAVYYCARGDYRAYYFDYWGQGTTLTVSS VL: DIQMTQSPKFMSTSVGDRVSITCKASQNVRTAVAWYQQKPGQSPKALIYLASNRHTGVPDRFTGSGSGTDFTLTISNVQSEDLADYFCLQHWNYPLTFGAGTKLELKR | binds | no binding
4 | IgG clone TF1413-02e040 (antibody, V domains shown, also called TF1413-02e040 IgG antibody) VH: EVMLVESGPELVKPGASMKISCKASGYSFTGYTMNWVKQSHGKNLEWIGLINPYNGGTSYNQNFKGKATLTVDKSSSTAYMELLSLTSEDSAVYYCARGYYGRFDYWGQGTTLTVSS VL: DILLTQSPKFMSTSVGDRVSITCKASQNVRTAVAWYQQKPGQSPKALIYLASNRHTGVPDRFTGSGSGTDFTLTISNVQSEDLADYFCLQHWNYPLTFGAGTKLELKR | binds | no binding
5 | IgG clone TF1413-03e034 (antibody, V domains shown, also called TF1413-03e034 IgG antibody) VH: EVQLQQSGPELEKPGASVKISCKASGYSFTGYNMNWVKQSNGKSLEWIGNIDPYYGGTSYNQKFKGKATLTVDKSSSTAYMQLKSLTSEDSAVYYCARGNYGYYAMDYWGQGTSVTVSS VL: DIVMSQSPKFMSTSVGDRVSITCKASQNVRTAVAWYQQKPGQSPKALIYLASNRHTGVPDRFTGSGSGTDFTLTISNVQSEDLADYFCLQHWNYPLTFGAGTKLELKR | binds | no binding
6 | IgG clone TF1413-02e014 (antibody, V domains shown, also called TF1413-02e014 IgG antibody) VH: QVQLKQSGAELVRSGASVKLSCTASGFNIKDYYMHWVKQRPEQGLEWIGWIDPENGDTEYAPKFQGKATMTADTSSNTAYLQLSSLTSEDTAVYYCNAGYYDYDGYAMDYWGQGTSVTVSS VL: DIVLTQSPKFMSTSVGDRVSITCKASQDVGTAVAWYQQKPGQSPKLLIYWASTRHTGVPDRFTGSGSGTDFTLTISNVQSEDLADYFCQQYSSYPLTFGGGTKLEIKR | binds | no binding

More lines, now with the values ahead:

Row | binding result [1] | binding result [2] | Binder
7 | no binding | – | IgG clone TF1413-03e015 (antibody, V domains shown, also called TF1413-03e015 IgG antibody) VH: EVQLQQSGPELVKPGASMKISCKASGYSFTGYTMNWVKQSHGKNLEWIGLINPYNGGTSYNQKFKGKATLTVDKSSSTAYMELLSLTSEDSAVYYCARGDYYPPYAMDYWGQGTSVTVSS VL: DIVMSQSPKFMSTSVGDRVSVTCKASQNVGTNVAWYQQKPGQSPKPLIYSASYRYSGVPDRFTGSGSGTDFTLTISNVQSEDLAEYFCQQYNRYPLTFGVGTKLEIKR
8 | – | no binding | IgG clone TF1413-02e030 (antibody, V domains shown, also called TF1413-02e030 IgG antibody) VH: EVQLQQSGAELVRPGALVKLSCKASGFNIKDYYMHWVKQRPEQGLEWIGWIDPENGNTIYDPKFQGKASITADTSSNTAYLQLSSLTSEDTAVYYCAISTMITTLDYWGQGTTLTVSS VL: not shown
9 | – | no binding | IgG clone TF1413-02d039 (antibody, V domains shown, also called TF1413-02d039 IgG antibody) VH: EVKLVESGGGLVKPGGSLKLSCAASGFAFSSYDMSWVRQTPEKRLEWVAYISSGGGSTYYPDTVKGRFTISRDNAKNTLYLQMSSLKSEDTAMYYCARRGLRRAMDYWGQGTSVTVSS VL: DVVMTQTPLSLPVSLGDQASISCRSSQSLVHSNGNTYLHWYLQKPGQSPKLLIYKVSNRFSGVPDRFSGSGSGTDFTLKISRVEAEDLGVYFCSQSTHVPLTFGAGTKLELKR
10 | binds | no binding | IgG clone TF1413-03e005 (antibody, V domains shown, also called TF1413-03e005 IgG antibody) VH: QVQLKESGAELVRSGASVKLSCTASGFNIKDYYMHWVKQRPEQGLEWIGWIDPENGDTEYAPKFQGKATMTADTSSNTAYLQLSSLTSEDTAVYYCNAFYYDYDGYAMDYWGQGTSVTVSR VL: DVVMTQTPSSLSASLGERVSLTCRASQEISGYLSWLQQKPDGTIKRLIYAASTLDSGVPKRFSGSRSGSDYSLTISSLESEDFADYYCLQYASYPLTFGAGTKLELKR
